Data on one molecule can be found in patent CN116514981A (JIANGSU QUANXIN BIOMEDICAL CO LTD, dated 2023).

One assay concerns the target T1, 人IL-12 (Bio IL-12) (human, UniProt P29459 23-219; P29460 23-328, biotin-labelled (Bio IL-12); sites not stated).
T1 construct: the p35 subunit is supplied from general knowledge
T1 sequence (looked up) 1: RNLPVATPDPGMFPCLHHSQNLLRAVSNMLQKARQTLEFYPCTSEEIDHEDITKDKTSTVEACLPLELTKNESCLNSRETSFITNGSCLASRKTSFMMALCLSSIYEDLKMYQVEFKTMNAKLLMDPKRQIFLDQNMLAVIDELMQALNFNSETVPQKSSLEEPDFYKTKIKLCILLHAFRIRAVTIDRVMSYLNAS
T1 sequence (looked up) 2: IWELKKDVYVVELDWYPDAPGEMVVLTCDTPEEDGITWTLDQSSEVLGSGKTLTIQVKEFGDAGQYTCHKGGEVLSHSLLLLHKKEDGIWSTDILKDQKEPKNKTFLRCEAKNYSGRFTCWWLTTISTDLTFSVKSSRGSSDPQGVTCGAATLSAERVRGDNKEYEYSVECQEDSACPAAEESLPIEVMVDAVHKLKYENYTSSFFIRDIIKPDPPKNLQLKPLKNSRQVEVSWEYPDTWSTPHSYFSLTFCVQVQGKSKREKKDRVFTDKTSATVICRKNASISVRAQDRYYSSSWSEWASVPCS
Briefly: ELISA: Bio IL-12 at 1 μg/ml captured on Neutravidin, antibody in serial dilution.

A further assay has as its target T2, 人IL-23 (Bio IL-23) (human, UniProt Q9NPF7 20-189; P29460 23-328, biotin-labelled (Bio IL-23); sites not stated).
T2 construct: also called hIL-23
T2 sequence (looked up) 1: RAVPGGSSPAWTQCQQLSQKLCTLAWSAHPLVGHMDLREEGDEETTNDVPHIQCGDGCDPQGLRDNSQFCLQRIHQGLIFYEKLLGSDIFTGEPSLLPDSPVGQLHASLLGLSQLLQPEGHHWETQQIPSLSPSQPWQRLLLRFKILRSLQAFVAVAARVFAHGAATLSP
T2 sequence (looked up) 2: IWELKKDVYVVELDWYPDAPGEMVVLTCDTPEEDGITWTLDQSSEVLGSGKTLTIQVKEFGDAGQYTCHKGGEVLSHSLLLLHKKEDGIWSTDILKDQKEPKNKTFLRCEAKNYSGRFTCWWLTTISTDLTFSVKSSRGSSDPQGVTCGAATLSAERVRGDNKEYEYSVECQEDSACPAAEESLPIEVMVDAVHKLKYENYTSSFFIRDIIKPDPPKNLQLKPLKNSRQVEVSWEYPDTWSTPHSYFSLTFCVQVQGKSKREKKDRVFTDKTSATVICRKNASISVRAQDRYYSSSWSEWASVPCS
The assay can be described thus: ELISA: Bio IL-23 at 1 μg/ml captured on Neutravidin, antibody in serial dilution. Background: An ELISA detects its analyte on a solid surface through an enzyme-linked reagent.

B1: 抗人IL-23P19单克隆抗体(第一抗体) (antibody, V domains shown)
VH: QEQLEESGGGLVKPGGTLTLTCKASGFDFTTYNYMCWVRQAPGKGLEWIACIYTTKTNTWYASWAKGRFTISKTSSTTVTLQMTSLTAADTATYFCARGGWDNLSLWGPGTLVTVSS
VL: AALTQTPASVSAAVGGTVTIKCQSSQSVYSNNYLAWYQQKPGQPPKVLIYAASTLASGVPSRFSGSGSGTQFTLTISGVQCDDAATYYCLGGYDDDAVFGGGTEVVVKG
notes: also called 抗人IL-23第一抗体; 包被抗体
On to B1, for which the binding result in the assay with 人IL-12 (Bio IL-12) is reported as “no binding”; in the assay with 人IL-23 (Bio IL-23), “binds”.
